The target in experiment [1] is T1, human CNTF (human, UniProt P26441 1-200, limits assumed).
T1 sequence (looked up): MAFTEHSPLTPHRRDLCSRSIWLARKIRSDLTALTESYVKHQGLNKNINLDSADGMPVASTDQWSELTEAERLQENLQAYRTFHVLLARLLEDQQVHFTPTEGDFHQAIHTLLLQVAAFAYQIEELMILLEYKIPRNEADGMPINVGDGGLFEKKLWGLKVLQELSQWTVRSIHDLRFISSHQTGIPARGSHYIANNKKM
The experiment can be described thus: ELISA, human CNTF coated at 1 µg/mL, HRP goat anti-mouse Fab, A450. The procedure:
(§1) After washed four times with PBST, HRP-labeled goat anti-mouse Fab secondary antibodies were added and incubated at room temperature for 1 h. After washed four times with PBST, TMB colored solution was added and color developing for 10 min at room temperature. The absorption value at 450 nm was read by the enzyme maker. The data were analyzed and plotted using Origin pro 9 software.
For orientation: An ELISA detects its analyte on a solid surface through an enzyme-linked reagent.

For experiment [2], the target named is T2, human OSM (human, UniProt P13725 26-221, limits assumed).
T2 sequence (looked up): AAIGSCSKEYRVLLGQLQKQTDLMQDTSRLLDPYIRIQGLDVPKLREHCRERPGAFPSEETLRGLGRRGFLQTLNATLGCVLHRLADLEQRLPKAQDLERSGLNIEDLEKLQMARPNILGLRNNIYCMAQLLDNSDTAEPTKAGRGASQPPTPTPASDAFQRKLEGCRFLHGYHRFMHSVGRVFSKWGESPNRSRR
The experiment can be described thus: ELISA, human OSM coated at 1 µg/mL, HRP goat anti-mouse Fab, A450. How it is done: as §1

Experiment [3] addresses human IL-6 (human, UniProt P05231 30-212, limits assumed). The experiment can be described thus: ELISA, human IL-6 coated at 1 µg/mL, HRP goat anti-mouse Fab, A450. The procedure:
as §1

Experiment [4] concerns the target T3, human LIF protein (human, UniProt P15018 23-202). The experiment can be described thus: cell-based or functional assay.
In experiment [5] the target is T3, human LIF protein. The experiment can be described thus: competition ELISA, LIF coated, competitor LIFR-Fc 0.6125 ug/mL detected with anti-human Fc.
For experiment [6], the target named is T3, human LIF protein. The experiment can be described thus: competition ELISA: human LIF coated at 1 µg/mL, LIFR-Fc 0.6125 µg/mL added together with the antibody, A450. How it is done:
The recombinant human LIF protein was coated on the enzyme label plate at a concentration of 1 μg/mL, LIFR protein (expressed fusedly with human FC) at a concentration of 0.6125 μg/mL was added (50 μL/well), and the anti-human LIF antibodies 38E10E1C11, P36-033 and 38E10E1C11R which is recombinantly expressed by CHO cells (SEQ ID NOs: 41 and 43) at different concentrations simultaneously were added separately (50 μL/well) and incubated for 2 h at room temperature. After washed four times with PBST, incubated with HRP-labeled goat anti-mouse FC secondary antibody for 1 h at room temperature. Then the plates were washed four times with PBST and added with TMB coloured solution in for 10 minutes. The absorption value at 450 nm is quantitated using an enzyme-labelling measuring instrument, and the data was analyzed and plotted using Origin pro 9 software.

In experiment [7] the target is T4, Mut3 heterozygous LIF protein (human LIF with residues 182-202 of …, UniProt P15018 23-201, limits assumed).
T4 construct: Secreted into the supernatant of transfected 293T cells; also called Mut3 protein
The experiment can be described thus: western blot of 293T culture supernatants, primary antibody 1 µg/mL, HRP anti-human Fc. The procedure: (§2) The supernatant of 293T cells transfected with human LIF full-length gene sequence, Mut3 and Mut4 protein sequences after 3 days of culture, and the negative control of 293T cell culture supernatant were taken, 5×SDS-PAGE loading buffer was added, and boiled for 10 minutes. Then 10 μL of sample was taken for SDS-PAGE electrophoresis, and then the electrophoretic bands were transferred to PVDF membrane for western blot detection. The primary antibody for detection was 38E huH3L2 or 38E huH3L4 antibody at a concentration of 1 μg/mL, and was incubated for 2 hours at room temperature. Then washed three times in PBST buffer and diluted HRP-labeled sheep anti-human Fc secondary antibody at a dilution ration of 1:3000 was added, incubated with the secondary antibody for 2 hours at room temperature, washed three times in PBST buffer and enhanced Chemiluminescent solution (Perice, item no. 34079) was added and incubated. An Amersham Imager 600 ultra-sensitive multifunctional imager was used for detection and photograph. […] The same results were obtained in the M1 cell proliferation assay, and the results were detailed in subfigure B in FIG. 22. Therefore, the epitope sequences recognized by the 38E huH3L2 and 38E huH3L4 antibodies were determined to be […] (SEQ ID NO: 61).
(A western blot detects proteins with antibodies after separation by electrophoresis.)

Experiment [8] addresses T5, Mut4 heterozygous LIF protein (human LIF with residues 166-202 of …, UniProt P15018 23-201, limits assumed).
T5 construct: Secreted into the supernatant of transfected 293T cells; also called Mut4 protein
Described as above. How it is done:
as §2

Experiment [9] addresses T3, human LIF protein. The experiment can be described thus: ELISA, antigen coated 0.5 ug/ml, 293S supernatant non-heated, antibody 0.2 ug/mL. How it is done:
(§3) Each well was coated with 100 μL of 0.5 μg/ml antigen and incubate overnight at 4° C., and the plates were washed three times with 300 μL of Wash Buffer. The plates were closed with 200 μL of Closure Buffer (2% bovine serum albumin) for 60 min at room temperature. The plates were washed three times with 300 μL of Wash Buffer. 100 μL of diluted anti-LIF antibody at different concentrations was added to each well and incubate for 1 hour at room temperature. The plates were washed 4 times with 300 μL of Wash Buffer. 100 μL of HRP-labeled goat anti-human Fc secondary antibody at a dilution of 1:5000 was added and incubate for 1 hour at room temperature. The plates were washed 6 times with 300 μL of Wash Buffer. 100 μL of H₂O₂-Amplx Color Development Solution was added for developing the color for 10 min at room temperature under dark conditions. The OD 450 value was read by an enzyme marker. Heat treatment: the expression medium was heated on the PCR machine at 70° C. for 5 min and then rapidly cooled to room temperature. Perform subsequent ELISA assays as above.

Experiment [10] addresses T3, human LIF protein. The experiment can be described thus: ELISA, antigen coated 0.5 ug/ml, 293S supernatant non-heated, antibody 1 ug/mL. The procedure: as §3
Experiment [11] concerns the target T3, human LIF protein. The experiment can be described thus: ELISA, antigen coated 0.5 ug/ml, 293S supernatant heated 70 C 5 min, antibody 0.04 ug/mL. How it is done: as §3
In experiment [12] the target is T3, human LIF protein. The experiment can be described thus: ELISA, antigen coated 0.5 ug/ml, 293S supernatant heated 70 C 5 min, antibody 1 ug/mL. How it is done:
as §3

Experiment [13] deals with T3, human LIF protein. The experiment can be described thus: ELISA, antigen coated 0.5 ug/ml, 293S supernatant heated 70 C 5 min, antibody 0.2 ug/mL. How it is done:
as §3

In experiment [14] the target is T3, human LIF protein. The experiment can be described thus: BLI (Gator), antibody on anti-human Fc biosensor, human LIF in solution. How it is done: The affinity of anti-LIF antibody to human LIF protein was determined using Gator. The anti-human LIF antibody was first diluted to 5 ug/mL with PBS and then added to A-F wells in second column of the 96-well plate (200 μL per well). […] PBS was added to A-F wells in the first and third columns (200 μL per well). The 96-well plates were placed into the instrument and detected with anti-human Fc biosensor.

Experiment [15] has as its target T3, human LIF protein. The experiment can be described thus: ELISA, antigen coated 0.5 ug/ml, 293S supernatant non-heated, antibody 0.04 ug/mL. The procedure: as §3

human IL-6, sequence (P05231 30-212 limits assumed): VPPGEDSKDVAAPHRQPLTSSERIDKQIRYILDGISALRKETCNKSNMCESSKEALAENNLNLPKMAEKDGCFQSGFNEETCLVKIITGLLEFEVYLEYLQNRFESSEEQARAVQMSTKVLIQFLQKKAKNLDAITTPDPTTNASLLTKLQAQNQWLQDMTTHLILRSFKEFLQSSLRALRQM

B1: 38E HuH3L2-m (antibody, mouse IgG1, kappa)
heavy: EVMLVESGGGLVQPGGSLRLSCAASGFIFSSYAMSWVRQAPETRLEWVATISSGGSNTYSPDTVKGRFTISRDNSKNTLYLQMNSLRAEDTAMYYCARYYGYYFDFWGQGTLLTVSSAKTTPPSVYPLAPGSAAQTNSMVTLGCLVKGYFPEPVTVTWNSGSLSSGVHTFPAVLQSDLYTLSSSVTVPSSTWPSETVTCNVAHPASSTKVDKKIVPRDCGCKPCICTVPEVSSVFIFPPKPKDVLTITLTPKVTCVVVDISKDDPEVQFSWFVDDVEVHTAQTQPREEQFNSTFRSVSELPIMHQDWLNGKEFKCRVNSAAFPAPIEKTISKTKGRPKAPQVYTIPPPKEQMAKDKVSLTCMITDFFPEDITVEWQWNGQPAENYKNTQPIMDTDGSYFVYSKLNVQKSNWEAGNTFTCSVLHEGLHNHHTEKSLSHSPGK
light: DIHMTQSPSSLSASVGDRVTITCRASENIYSYLAWYQQKPGKSPKLLVYNAKTLAEGVPSRFSGSGSGTDFTLTISSLQPEDFATYYCQHHYVTPLTFGQGTKLEIKRADAAPTVSIFPPSSEQLTSGGASVVCFLNNFYPKDINVKWKIDGSERQNGVLNSWTDQDSKDSTYSMSSTLTLTKDEYERHNSYTCEATHKTSTSPIVKSFNRNEC
notes: Humanized variable regions of 38E HuH3L2 on mouse IgG1 / kappa constant regions
The term IC50 denotes the concentration at which inhibition is half-maximal. Higher therefore signals a need for much substance. For the molecule B1, the binding result in experiment [1], in [2] and in [3] was “no binding (tested: 25 ug/ml)” in each case. For the same molecule, in [4], the “EC50, reversal of proliferation inhibition of M1 cells (CCK-8)” value was determined as 8.93 µg/mL. In experiment [5], this molecule returned an IC50 of 0.145 µg/mL.

B2: 38E HuH3L4-m (antibody, mouse IgG1, kappa)
heavy: EVMLVESGGGLVQPGGSLRLSCAASGFIFSSYAMSWVRQAPETRLEWVATISSGGSNTYSPDTVKGRFTISRDNSKNTLYLQMNSLRAEDTAMYYCARYYGYYFDFWGQGTLLTVSSAKTTPPSVYPLAPGSAAQTNSMVTLGCLVKGYFPEPVTVTWNSGSLSSGVHTFPAVLQSDLYTLSSSVTVPSSTWPSETVTCNVAHPASSTKVDKKIVPRDCGCKPCICTVPEVSSVFIFPPKPKDVLTITLTPKVTCVVVDISKDDPEVQFSWFVDDVEVHTAQTQPREEQFNSTFRSVSELPIMHQDWLNGKEFKCRVNSAAFPAPIEKTISKTKGRPKAPQVYTIPPPKEQMAKDKVSLTCMITDFFPEDITVEWQWNGQPAENYKNTQPIMDTDGSYFVYSKLNVQKSNWEAGNTFTCSVLHEGLHNHHTEKSLSHSPGK
light: DIHMTQSPSSLSASVGDRVTITCRASENIYSYLAWYQQKQGKSPQLLVYNAKTLAEGVPSRFSGSGSGTQFTLKINSLQPEDFATYYCQHHYVTPLTFGQGTKLEIKRADAAPTVSIFPPSSEQLTSGGASVVCFLNNFYPKDINVKWKIDGSERQNGVLNSWTDQDSKDSTYSMSSTLTLTKDEYERHNSYTCEATHKTSTSPIVKSFNRNEC
notes: Humanized variable regions of 38E HuH3L4 on mouse IgG1 / kappa constant regions
With B2, the binding result in [1], in experiment [2] and in [3] was “no binding (tested: 25 ug/ml)” each time. Moreover, in [4], the “EC50, reversal of proliferation inhibition of M1 cells (CCK-8)” value came to 6.52 µg/mL. This molecule displayed a half-maximal inhibitory concentration (IC50) in experiment [5] of 0.103 µg/mL.

B3: 38E10E1C11R (38E10E1C11 antibody recombinantly expressed by CHO cells) (antibody, mouse IgG1, kappa)
heavy: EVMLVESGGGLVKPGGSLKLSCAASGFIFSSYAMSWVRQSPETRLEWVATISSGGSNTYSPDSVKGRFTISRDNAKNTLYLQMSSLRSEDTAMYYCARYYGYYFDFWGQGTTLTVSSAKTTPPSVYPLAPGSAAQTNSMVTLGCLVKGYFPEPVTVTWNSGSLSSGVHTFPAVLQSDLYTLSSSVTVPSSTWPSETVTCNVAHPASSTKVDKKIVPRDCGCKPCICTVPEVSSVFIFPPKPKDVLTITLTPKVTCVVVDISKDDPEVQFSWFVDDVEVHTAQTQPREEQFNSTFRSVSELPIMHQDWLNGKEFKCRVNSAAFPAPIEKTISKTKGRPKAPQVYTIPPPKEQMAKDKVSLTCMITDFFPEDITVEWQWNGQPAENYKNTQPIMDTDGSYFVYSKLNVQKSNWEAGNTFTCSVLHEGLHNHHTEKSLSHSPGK
light: DIHMTQSPASLSASVGETVTITCRASENIYSYLAWYQQKQGKSPQLLVYNAKTLAEGVPSRFSGSGSGTQFSLKINSLQPEDFGSYYCQHHYVTPLTFGAGTKLELKRADAAPTVSIFPPSSEQLTSGGASVVCFLNNFYPKDINVKWKIDGSERQNGVLNSWTDQDSKDSTYSMSSTLTLTKDEYERHNSYTCEATHKTSTSPIVKSFNRNEC
On to B3, for which, in experiment [6], the “IC50 (read off the curve)” value is roughly 0.2 µg/mL.

B4: 38E HuH3L2 (antibody, human IgG1, kappa, N297A)
heavy: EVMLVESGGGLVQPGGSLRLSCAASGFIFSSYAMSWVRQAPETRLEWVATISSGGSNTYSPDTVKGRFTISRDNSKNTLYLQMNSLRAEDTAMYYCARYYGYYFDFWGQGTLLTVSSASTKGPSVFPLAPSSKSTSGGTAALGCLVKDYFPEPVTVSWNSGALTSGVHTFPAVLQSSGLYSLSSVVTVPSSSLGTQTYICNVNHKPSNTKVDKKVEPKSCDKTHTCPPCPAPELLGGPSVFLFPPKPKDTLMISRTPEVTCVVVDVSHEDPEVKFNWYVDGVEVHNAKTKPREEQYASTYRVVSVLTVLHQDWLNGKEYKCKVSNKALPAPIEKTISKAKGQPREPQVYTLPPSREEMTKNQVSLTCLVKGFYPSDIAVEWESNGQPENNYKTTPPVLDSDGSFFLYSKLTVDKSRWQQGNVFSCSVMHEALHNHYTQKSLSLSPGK
light: DIHMTQSPSSLSASVGDRVTITCRASENIYSYLAWYQQKPGKSPKLLVYNAKTLAEGVPSRFSGSGSGTDFTLTISSLQPEDFATYYCQHHYVTPLTFGQGTKLEIKRTVAAPSVFIFPPSDEQLKSGTASVVCLLNNFYPREAKVQWKVDNALQSGNSQESVTEQDSKDSTYSLSSTLTLSKADYEKHKVYACEVTHQGLSSPVTKSFNRGEC
notes: Humanized, human IgG1 / kappa
The Kd is the equilibrium constant for the complex coming apart. For orientation: koff means the first-order rate constant of dissociation. A low value points to slow dissociation. The kon is a measure of how fast the partners come together. Take B4: the binding result in experiment [7] is recorded as “binds”; in experiment [8], “no binding (tested: primary antibody 1 µg/mL)”. Besides, the ELISA signal was found to be 10600 in experiment [9]; 11300 in experiment [10]; 5060 in experiment [11]; 9450 in experiment [12]; 8780 in experiment [13]; 6600 in [15]. This molecule also registered a dissociation constant Kd in experiment [14] of 0.0538 nM. Moreover, in experiment [14], the koff worked out at 3.39e-05 s⁻¹. In experiment [14], the kon came to 631000 M⁻¹ s⁻¹.

The values above are taken from patent US20210403582A1 (JACOBIO PHARMACEUTICALS, published 2021).
